First the molecules themselves.
B1: M53T/P55T: recombinant human β-glucocerebrosidase variant R495H/M53T/P55T, S2 cells; Seq. Id. No. 7 (protein, listed as Homo sapiens)
chain: ARPCIPKSFGYSSVVCVCNATYCDSFDPPTFPALGTFSRYESTRSGRRMELSTGTIQANHTGTGLLLTLQPEQKFQKVKGFGGAMTDAAALNILALSPPAQNLLLKSYFSEEGIGYNIIRVPMASCDFSIRTYTYADTPDDFQLHNFSLPEEDTKLKIPLIHRALQLAQRPVSLLASPWTSPTWLKTNGAVNGKGSLKGQPGDIYHQTWARYFVKFLDAYAEHKLQFWAVTAENEPSAGLLSGYPFQCLGFTPEHQRDFIARDLGPTLANSTHHNVRLLMLDDQRLLLPHWAKVVLTDPEAAKYVHGIAVHWYLDFLAPAKATLGETHRLFPNTMLFASEACVGSKFWEQSVRLGSWDRGMQYSHSIITNLLYHVVGWTDWNLALNPEGGPNWVRNFVDSPIIVDITKDTFYKQPMFYHLGHFSKFIPEGSQRVGLVASQKNDLDAVALMHPDGSAVVVVLNRSSKDVPLTIKDPAVGFLETISPGYSIHTYLWHRQ
notes: recombinant human β-glucocerebrosidase variant R495H/M53T/P55T, S2 cells; Id; No. 7
B2: I5N: recombinant human β-glucocerebrosidase variant R495H/I5N, S2 cells; Seq. Id. No. 4 (protein, listed as Homo sapiens)
chain: B1 chain with I5N, T53M, T55P
notes: recombinant human β-glucocerebrosidase variant R495H/I5N, S2 cells; Id; No. 4
B3: L34Q: recombinant human β-glucocerebrosidase variant R495H/L34Q, S2 cells; Seq. Id. No. 6 (protein, listed as Homo sapiens)
chain: B1 chain with L34Q, T53M, T55P
notes: recombinant human β-glucocerebrosidase variant R495H/L34Q, S2 cells; Id; No. 6
B4: F31Y: recombinant human β-glucocerebrosidase variant R495H/F31Y, S2 cells; Seq. Id. No. 5 (protein, listed as Homo sapiens)
chain: B1 chain with F31Y, T53M, T55P
notes: recombinant human β-glucocerebrosidase variant R495H/F31Y, S2 cells; Id; No. 5
B5: K321N: Amicus single mutant hGCase R495H/K321N produced in S2 cells; Seq. Id. No. 2 (protein, listed as Homo sapiens)
chain: B1 chain with T53M, T55P, K321N
notes: Amicus single mutant hGCase R495H/K321N produced in S2 cells; Id; No. 2
B6: imiglucerase (protein, UniProt P04062 40-536, looked up, variant R495H)
Lysosomal acid …: B1 chain with T53M, T55P
modifications: imiglucerase; CHO-produced
notes: Commercially available Cerezyme (imiglucerase, Genzyme), hGCase R495H produced in CHO cells
B7: K321N/H145L: Amicus double mutant hGCase R495H/K321N/H145L produced in S2 cells; Seq. Id. No. 3 (protein, listed as Homo sapiens)
chain: B1 chain with T53M, T55P, H145L, K321N
notes: Amicus double mutant hGCase R495H/K321N/H145L produced in S2 cells; Id; No. 3
B8: R495HS2: hGCase based on the Cerezyme sequence (R495H) but produced in S2 cells, His8-tagged; Seq. Id. No. 1 (protein, listed as Homo sapiens)
chain: B1 chain with T53M, T55P
modifications: His8 tag

Changes are numbered by the printed parent chain. Names and notes keep the numbering of the source. Values joined by “and” are separate entries in the source; they are usually repeats but may differ in a detail not shown here. Equal entries are not always repeated.

System in one data set: not listed separately
Put plainly: Heat inactivation at 55° C., residual GCase activity of purified protein. It counts as physicochemical. As to conditions: 55° C. waterbath, 5 min incubation, 50 nM protein, initial activity = 100%. As for the experimental part: (§1) For all further GCase characterization experiments including the activity assay, 20 μM substrate concentration, 30-40 min incubation time and protein concentrations ranging from 25-100 nM were set as final assay settings to ensure measurements in the linear range. The overall DMSO concentration within the assay was kept at 0.5% (v/v) or even below, since DMSO influences the fluorescent signal with higher concentrations (experimentally tested, data not shown; confirmed by (Urban et al., 2008). Therefore, GCase activity buffer+1% (v/v) DMSO was also used for dilutions (table 2.9). The plate reader SpectraMax i3 (Molecular Devices) including the analysis software SoftMax Pro 6.4 was used for all activity measurements within this work. The program settings were kept the same for all activity runs: kinetic run, measurement temperature: 37° C., PMT Gain: high; flashes per read: 6; read height: 0.73305 mm from plate.
Another approach to test the mutants for thermal stability is the irreversible heat inactivation at 55° C. (Futami et al., 2017; Zale & Klibanov, 1986). As initial screening to select for most promising candidates, this thermal stability approach was chosen (section 3.1.1). For this, supernatant samples of each construct were taken from the 30 ml S2 cell cultures, respectively (section 2.2). The protein concentration was not adjusted. The samples were incubated for 40 min in total at 55° C. (PCR Cycler Mastercycler gradient, Eppendorf) using PCR plates (FrameStar®96 well skirted PCR plate, 4titude Ltd.). Samples were taken after 5, 7, 10, 15, 20, 30 and 40 min for residual activity measurements. The activity assay was performed as described in section 2.3.5. The initial activity of each mutant was set to 100% before heating. Residual activities were calculated in regard to the initial activity. Data points were fitted using the one phase decay fit by GraphPad Prism7 following equation 3: […]
For the heat inactivation experiment of purified protein (see section 3.3.3), hGCase protein samples were prepared with a final concentration of 50 nM, diluted in hGCase activity buffer, pH 6.0 (table 2.9) and incubated for 5 and 10 minutes in the waterbath (Julabo 5A, Julabo) at 55° C.
The second approach was aimed to test residual GCase activity after thermal inactivation at a fixed temperature. With this additional approach, the focus was set on activity-based changes with increased incubation time (Futami et al., 2017; Zale & Klibanov, 1986). Here, samples were incubated for 5 and 10 minutes in the waterbath at 55° C. Residual GCase activities were measured with the initial activity set to 100% (before heating). FIG. 2 depicts calculated residual activities for tested mutants after incubation.
As for B1, the “residual GCase activity after heat inactivation” value (“residual GCase activity” below) is on record as 65%.

As to B2, the “residual GCase activity” value amounted to 31%.

Staying with this data set, now noted: 55° C. waterbath, 10 min incubation, 50 nM protein, initial activity = 100%.
With B1, the “residual GCase activity” value was found to be 27%.

On to B2, for which the “residual GCase activity” value is given as 16%.

In the case of B3, the “residual GCase activity” value is on record as approximately 27%.

On to B4, for which the “residual GCase activity” value is approximately 27%.

The data set is the same for the next values; noted with them: 55° C., compared to R495HS2.
With B5, the “residual activities after 5 and 10 min of incubation (in words)” value (“residual activities after 5 and 10 min” below) is on record as “significantly higher residual activities”.

With B6, the “residual activities after 5 and 10 min” value is recorded as “rapidly lose its initial activity but retained residual activity with further incubation”.

In the case of B7, the “residual activities after 5 and 10 min” value is recorded as “significantly higher residual activities”.

System in a further data set: not listed separately
Put plainly: pH screening of hGCase variants (activity assay, pH 3.5-8). It counts as biochemical. The following applies: pH 3.5, 20 mM citric acid buffer. The protocol:
as §1
A pH optimum screening was done to observe a possible shift in the pH spectrum of the new variants due to structural modification of the enzymes. Therefore, three different buffers were used, covering a pH range of pH 3.5 to 8. For the screening, buffer substances were chosen after the use for purification buffers. Therefore, following buffers were prepared: Citric acid buffer (20 mM, pH 3.5-5), MES buffer (20 mM, pH 6-6.5) and HEPES buffer (20 mM, pH 7-8). The final protein concentration used for this assay was 75 nM. The activity assay was done as described in section 2.3.5 (table 2.11), merely the buffer was varied.
A possible pH optimum shift due to structural modifications should be examined. Since the GCase enzyme originally occurs within the lysosome, its natural pH optimum is reported to be between pH 4.7-6.0 (Lieberman et al., 2007; Liou et al., 2006; Tan et al., 2014). This could change when including slight modifications in the structure of the molecule. Thus, the mutants were tested within a pH range of 3.5 to 8 for enzymatic activity.
On to B6, for which the loss of activity is recorded as 40%.

Staying with this data set, now noted: pH 3.5, 20 mM citric acid buffer; highest activity = 100%.
The molecule B8 registered a relative activity of 80%.

As to B1, the relative activity is reported as 80%.

In turn, B2 returned a relative activity of 75%.

Turning to B3, the relative activity is approximately 80%.

Regarding B4, the relative activity was approximately 80%.

Staying with this data set, now noted: pH 3.5-8.
Take B1: the “shape of pH spectrum” value was “more bell-shaped pH spectrum”.

As to B7, the “shape of pH spectrum” value is “more bell-shaped pH spectrum”.

The same data set, now with this note: pH 8, 20 mM HEPES buffer.
Regarding B2, the “activity at pH 8” value was “completely inactive”.

The data set is the same for the next values; noted with them: pH range 3.5-8, 75 nM protein, 100% relative activity.
B3 returned a pH optimum of 6 pH.

Regarding B4, the pH optimum is 6 pH.

A further data set has as its target hGCase. Put plainly: Inhibition of hGCase using isofagomine (IFG), IC50 determination. It counts as biochemical, human. The following applies: reversible inhibitor isofagomine on the named hGCase variant; 25 nM protein, 10 min pre-incubation at RT, 20 μM res-β-glc. As for the experimental part:
IFG is a competitive, reversible inhibitor of hGCase, interacting with the active pocket of the enzyme (Powe et al., 2006).
To calculate the IC50, a concentration range of 0.002-100 μM IFG was tested. IFG was prepared with a stock concentration of 1 mM in DMSO. The final enzyme concentration was 25 nM. After adding the inhibitor to the enzyme, the solution was pre-incubated for 10 min at RT before adding the substrate (20 μM) for the activity measurement.
The evaluation and IC50 determination were done using GraphPad Prism7. hGCase activity with no inhibitor added was set to 100% relative enzyme activity. In case of evaluating the raw data via GraphPadPrism7, the applied inhibitor concentrations were first transformed to log 10×-values plottet on the x-axis. Further, the raw data measured with the activity assay in RFU was normalized to the highest activity value within one data set (equals 100%). 100% signal was defined as 10-12 μM IFG (=no inhibitor added). Data points were fitted and IC50 values were determined using log(inhibitor) vs. response-variable slope (four parameters) (GraphPadPrism7) following equation 9: […]
(§2) To determine whether the active binding site of an enzyme is compromised or altered, IC50 values were calculated for active site inhibitor and compared. In this work, the natural occurring GCase inhibitor isofagomine (IFG) and conditurol-β-epoxide (CBE) were used. IFG is known as a reversible inhibitor, interacting with the active site of the GCase enzyme, whereas CBE is an irreversible inhibitor of GCase (Powe et al., 2006). The IC50 of an enzyme is defined as the concentration of an inhibitor, where the response, in this case the enzyme activity, is reduced by half (Kalliokoski et al., 2013). Both assays were conducted as described in section 2.5.6. The inhibitor profiles of M53T/P55T using IFG and CBE as well as the IC50 profiles of all residual mutants combined are shown in FIG. 4.
(§3) The raw data was plotted by transforming the applied IFG/CBE concentration to a logarithmic scale (x-axis, FIG. 4) and by normalizing the activity signal with highest signal of each data set to 100% (defined with apparent inhibitor concentration of 10-12 μM, equal to no inhibitor). IC50 values were calculated using GraphPad Prism7 following equation 9.
As for B8, 17 nM corresponded to half-maximal inhibition (IC50).

With B1, the IC50 was ~40 nM and 40 nM.

On to B2, for which half-maximal inhibition (IC50) was put at 26 ± 3 nM.

B3: half-maximal inhibition (IC50) required 22 ± 4 nM.

Regarding B5, it took 28 ± 3 nM to reach half-maximal inhibition (IC50).

Take B4: the concentration for half-maximal inhibition (IC50) was 28 ± 3 nM.

For the molecule B6, the IC50 was found to be 27 ± 6 nM.

Regarding B7, the IC50 is 35 ± 11 nM.

The next data set concerns the target hGCase. Put plainly: Inhibition of hGCase using conditurol-β-epoxide (CBE), IC50 determination. The following applies: irreversible inhibitor conditurol-β-epoxide on the named hGCase variant; 25 nM protein, 10 min pre-incubation, 20 μM res-β-glc. It counts as biochemical, human. As for the experimental part: CBE is an irreversible inhibitor of glucocerebrosidases which covalently binds to the active site of the enzyme (Liou et al., 2006).
A stock solution of 100 mM CBE in H2Oultrapure was prepared. For IC50 determination, CBE concentrations ranging from 0.04-2500 μM were tested. Again, the final enzyme concentration was 25 nM. After adding the inhibitor, the enzyme was pre-incubated for 10 min before initializing the activity measurement by adding the substrate (20 μM).
IC50 evaluations were done in the same manner as described for IFG (see section above). The IC50 calculations were done using GraphPad Prism7 following equation 9.
as §2, §3
Regarding B8, 55000 ± 3000 nM corresponded to half-maximal inhibition (IC50).

With B1, the IC50 was ~76000 nM and 76000 nM.

Turning to B3, the IC50 stood at 106000 nM.

For the molecule B5, it took 28000 nM to reach half-maximal inhibition (IC50).

Molecule B4 came in with an IC50 of 60000 ± 3000 nM.

Take B6: 60000 ± 3000 nM corresponded to half-maximal inhibition (IC50).

Molecule B7 returned a half-inhibitory concentration (IC50) of 35000 nM. This IC50 is about 1.7-fold lower than that of the molecule before.

Broadly, the IC50 is the point on the concentration scale where inhibition reaches its midpoint.

These data come from patent publication US20220325265A1, “GLUCOCEREBROSIDASE MUTANTS” (Hoffmann-la Roche Inc., priority 2019, published 2022).
